Test results: publication PMC3360035

Target: Wild-type human γD-crystallin (human) (UniProt P07320)
Sequence (P07320 whole entry): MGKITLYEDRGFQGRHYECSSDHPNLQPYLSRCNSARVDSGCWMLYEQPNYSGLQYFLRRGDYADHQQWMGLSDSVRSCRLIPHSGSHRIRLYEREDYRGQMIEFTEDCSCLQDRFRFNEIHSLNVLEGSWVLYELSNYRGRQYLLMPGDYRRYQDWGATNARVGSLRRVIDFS

suppression of aggregation on dilution out of 5 M GdnHCl (from maximum A350), αB in 5-fold molar excess: 72%
Substance: αB-crystallin, wild type (from UniProt P02511 1-175) (natural protein)
